Starred links: 1 amine or outer side, 2 acyl side, 3 side chain; linkers in the order of their positions; H or OH if unused. Non-standard residues stand in square brackets, D forms with d. Groups on a side chain read outwards from the residue. Primed or numbered codes have the meaning given here. No end group written: not given here. *: point of attachment. γGlu = O=C(O)[C@H](CCC(=O)[*:2])N[*:1]; Stearoyl = CCCCCCCCCCCCCCCCCC(=O)*; Palmitoyl = CCCCCCCCCCCCCCCC(=O)*; αMeF = C[C@](N)(Cc1ccccc1)C(=O)O; αMeK = C[C@](N)(CCCCN)C(=O)O; αMeS = C[C@](N)(CO)C(=O)O; PEG2′ = not defined here; Aib = CC(C)(N)C(=O)O

glucagon receptor (GCGR), sequence (P47871 26-477): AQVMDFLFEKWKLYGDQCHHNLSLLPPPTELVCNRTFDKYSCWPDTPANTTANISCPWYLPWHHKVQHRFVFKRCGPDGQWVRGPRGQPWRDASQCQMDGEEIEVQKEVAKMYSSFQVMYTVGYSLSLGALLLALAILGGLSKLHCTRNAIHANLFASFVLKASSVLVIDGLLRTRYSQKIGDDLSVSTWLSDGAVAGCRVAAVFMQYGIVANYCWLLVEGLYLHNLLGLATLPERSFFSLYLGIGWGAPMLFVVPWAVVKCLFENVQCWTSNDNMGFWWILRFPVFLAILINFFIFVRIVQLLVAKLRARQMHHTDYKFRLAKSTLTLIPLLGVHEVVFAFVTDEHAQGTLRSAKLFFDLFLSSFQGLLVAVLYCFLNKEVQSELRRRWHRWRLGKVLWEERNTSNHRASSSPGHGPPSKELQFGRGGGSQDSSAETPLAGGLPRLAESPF

The first assay addresses GLP-1 receptor (GLP-1R) (human, UniProt P43220 24-463). The assay is described as follows: cell-based or functional assay.
As for H[Aib]EGS[αMeF]TSDV[αMeS]S[αMeF]LEGEK([PEG2′-PEG2′-γGlu-Stearoyl])A[αMeK]E[αMeF]IA[αMeF]VV[αMeK]GG-NH2 [SEQ ID NO 111], the “cAMP Mean pM GLP-1R” value is 17 pM, the “cAMP Primary assay EC50 GLP-1R n1” value is 0.018 nM and the “cAMP Primary assay EC50 GLP-1R n2” value came to 0.0164 nM.

Regarding H[Aib]EGS[αMeF]TSDV[αMeS]S[αMeF]LEGEAA[αMeK]E[αMeF]K([PEG2′-PEG2′-γGlu-Stearoyl])A[αMeF]VV[αMeK]GG-NH2 [SEQ ID NO 106], the “cAMP Mean pM GLP-1R” value was found to be 6140 pM, the “cAMP Primary assay EC50 GLP-1R n1” value worked out at 6.5 nM and the “cAMP Primary assay EC50 GLP-1R n2” value amounted to 5.79 nM.

In the case of H[Aib]EGS[αMeF]TSDV[αMeS]S[αMeF]LEGEAA[αMeK]E[αMeF]IK([PEG2′-PEG2′-γGlu-Stearoyl])[αMeF]VV[αMeK]GG-NH2 [SEQ ID NO 105], the “cAMP Mean pM GLP-1R” value came out at 18 pM, the “cAMP Primary assay EC50 GLP-1R n1” value stood at 0.021 nM and the “cAMP Primary assay EC50 GLP-1R n2” value turned out to be 0.0148 nM.

As for H[Aib]EGS[αMeF]TSDV[αMeS]S[αMeF]K([PEG2′-PEG2′-γGlu-Stearoyl])EGEAA[αMeK]E[αMeF]IA[αMeF]VV[αMeK]GG-NH2 [SEQ ID NO 115], the “cAMP Mean pM GLP-1R” value stood at 6 pM, the “cAMP Primary assay EC50 GLP-1R n1” value was 0.006 nM and the “cAMP Primary assay EC50 GLP-1R n2” value came out at 0.00539 nM.

As to H[Aib]EGS[αMeF]TSDV[αMeS]SK([PEG2′-PEG2′-γGlu-Stearoyl])LEGEAA[αMeK]E[αMeF]IA[αMeF]VV[αMeK]GG-NH2 [SEQ ID NO 116], the “cAMP Mean pM GLP-1R” value came to 9 pM, the “cAMP Primary assay EC50 GLP-1R n1” value worked out at 0.0093 nM and the “cAMP Primary assay EC50 GLP-1R n2” value came out at 0.00912 nM.

As for H[Aib]EGS[αMeF]TSDV[αMeS]S[αMeF]LEGEAAK([PEG2′-PEG2′-γGlu-Palmitoyl])E[αMeF]IA[αMeF]VV[αMeK]GG-NH2 [SEQ ID NO 109], the “cAMP Mean pM GLP-1R” value worked out at 34 pM, the “cAMP Primary assay EC50 GLP-1R n1” value came to 0.034 nM and the “cAMP Primary assay EC50 GLP-1R n2” value is 0.0346 nM.

As to H[Aib]EGS[αMeF]TSDV[αMeS]S[αMeF]LEGEAK([PEG2′-PEG2′-γGlu-Stearoyl])[αMeK]E[αMeF]IA[αMeF]VV[αMeK]GG-NH2 [SEQ ID NO 110], the “cAMP Mean pM GLP-1R” value came to 62 pM, the “cAMP Primary assay EC50 GLP-1R n1” value was 0.06 nM and the “cAMP Primary assay EC50 GLP-1R n2” value amounted to 0.0639 nM.

Turning to H[Aib]EGS[αMeF]TSDV[αMeS]S[αMeF]LEK([PEG2′-PEG2′-γGlu-Stearoyl])EAA[αMeK]E[αMeF]IA[αMeF]VV[αMeK]GG-NH2 [SEQ ID NO 113], the “cAMP Mean pM GLP-1R” value came out at 18 pM, the “cAMP Primary assay EC50 GLP-1R n1” value was determined as 0.018 nM and the “cAMP Primary assay EC50 GLP-1R n2” value is 0.0174 nM.

Another assay addresses glucagon receptor (GCGR) (human, UniProt P47871 26-477). Nature of the assay: cell-based or functional assay.
As to H[Aib]EGS[αMeF]TSDV[αMeS]S[αMeF]LEGEK([PEG2′-PEG2′-γGlu-Stearoyl])A[αMeK]E[αMeF]IA[αMeF]VV[αMeK]GG-NH2 [SEQ ID NO 111], the “cAMP Primary assay EC50 Gluc-R” value is 25 nM and the “cAMP Primary assay EC50 Gluc-R (2nd)” value worked out at 25 nM.

As to H[Aib]EGS[αMeF]TSDV[αMeS]S[αMeF]LEGEAA[αMeK]E[αMeF]K([PEG2′-PEG2′-γGlu-Stearoyl])A[αMeF]VV[αMeK]GG-NH2 [SEQ ID NO 106], the “cAMP Primary assay EC50 Gluc-R” value was found to be 25 nM and the “cAMP Primary assay EC50 Gluc-R (2nd)” value was 25.3 nM.

Consider H[Aib]EGS[αMeF]TSDV[αMeS]S[αMeF]LEGEAA[αMeK]E[αMeF]IK([PEG2′-PEG2′-γGlu-Stearoyl])[αMeF]VV[αMeK]GG-NH2 [SEQ ID NO 105], for which the “cAMP Primary assay EC50 Gluc-R” value was 25 nM and the “cAMP Primary assay EC50 Gluc-R (2nd)” value is 25 nM.

H[Aib]EGS[αMeF]TSDV[αMeS]S[αMeF]K([PEG2′-PEG2′-γGlu-Stearoyl])EGEAA[αMeK]E[αMeF]IA[αMeF]VV[αMeK]GG-NH2 [SEQ ID NO 115]: the “cAMP Primary assay EC50 Gluc-R” value stood at 25 nM and the “cAMP Primary assay EC50 Gluc-R (2nd)” value was found to be 25.3 nM.

Take H[Aib]EGS[αMeF]TSDV[αMeS]SK([PEG2′-PEG2′-γGlu-Stearoyl])LEGEAA[αMeK]E[αMeF]IA[αMeF]VV[αMeK]GG-NH2 [SEQ ID NO 116]: the “cAMP Primary assay EC50 Gluc-R” value was found to be 26 nM and the “cAMP Primary assay EC50 Gluc-R (2nd)” value is 25.6 nM.

For H[Aib]EGS[αMeF]TSDV[αMeS]S[αMeF]LEGEAAK([PEG2′-PEG2′-γGlu-Palmitoyl])E[αMeF]IA[αMeF]VV[αMeK]GG-NH2 [SEQ ID NO 109], the “cAMP Primary assay EC50 Gluc-R” value was 26 nM and the “cAMP Primary assay EC50 Gluc-R (2nd)” value came out at 25.6 nM.

As for H[Aib]EGS[αMeF]TSDV[αMeS]S[αMeF]LEGEAK([PEG2′-PEG2′-γGlu-Stearoyl])[αMeK]E[αMeF]IA[αMeF]VV[αMeK]GG-NH2 [SEQ ID NO 110], the “cAMP Primary assay EC50 Gluc-R” value was found to be 25 nM and the “cAMP Primary assay EC50 Gluc-R (2nd)” value was determined as 25 nM.

For the molecule H[Aib]EGS[αMeF]TSDV[αMeS]S[αMeF]LEK([PEG2′-PEG2′-γGlu-Stearoyl])EAA[αMeK]E[αMeF]IA[αMeF]VV[αMeK]GG-NH2 [SEQ ID NO 113], the “cAMP Primary assay EC50 Gluc-R” value turned out to be 25 nM and the “cAMP Primary assay EC50 Gluc-R (2nd)” value is 24.9 nM.

For the next assay, the target named is T1, glucose-dependent insulinotropic peptide (gastric inhibitory polypeptide) receptor (GIPR) (human, UniProt P48546 22-466).
T1 sequence (looked up): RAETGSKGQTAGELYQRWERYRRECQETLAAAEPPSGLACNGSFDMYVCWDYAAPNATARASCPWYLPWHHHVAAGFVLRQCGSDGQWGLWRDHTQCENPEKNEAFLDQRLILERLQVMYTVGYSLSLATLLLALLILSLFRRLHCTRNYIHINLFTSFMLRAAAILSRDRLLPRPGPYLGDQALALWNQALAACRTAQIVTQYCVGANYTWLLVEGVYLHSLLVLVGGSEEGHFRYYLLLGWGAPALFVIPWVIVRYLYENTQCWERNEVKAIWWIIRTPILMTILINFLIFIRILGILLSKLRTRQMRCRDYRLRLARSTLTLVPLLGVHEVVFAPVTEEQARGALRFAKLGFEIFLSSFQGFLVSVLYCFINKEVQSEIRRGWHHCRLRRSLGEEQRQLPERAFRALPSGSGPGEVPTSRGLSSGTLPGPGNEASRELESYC
Nature of the assay: cell-based or functional assay.
For the molecule H[Aib]EGS[αMeF]TSDV[αMeS]S[αMeF]LEGEK([PEG2′-PEG2′-γGlu-Stearoyl])A[αMeK]E[αMeF]IA[αMeF]VV[αMeK]GG-NH2 [SEQ ID NO 111], the “cAMP Primary assay EC50 GIP-R” value came to 25 nM and the “cAMP Primary assay EC50 GIP-R (2nd)” value is 25 nM.

Take H[Aib]EGS[αMeF]TSDV[αMeS]S[αMeF]LEGEAA[αMeK]E[αMeF]K([PEG2′-PEG2′-γGlu-Stearoyl])A[αMeF]VV[αMeK]GG-NH2 [SEQ ID NO 106]: the “cAMP Primary assay EC50 GIP-R” value was 25 nM and the “cAMP Primary assay EC50 GIP-R (2nd)” value worked out at 25.3 nM.

As to H[Aib]EGS[αMeF]TSDV[αMeS]S[αMeF]LEGEAA[αMeK]E[αMeF]IK([PEG2′-PEG2′-γGlu-Stearoyl])[αMeF]VV[αMeK]GG-NH2 [SEQ ID NO 105], the “cAMP Primary assay EC50 GIP-R” value was found to be 25 nM and the “cAMP Primary assay EC50 GIP-R (2nd)” value worked out at 25 nM.

Turning to H[Aib]EGS[αMeF]TSDV[αMeS]S[αMeF]K([PEG2′-PEG2′-γGlu-Stearoyl])EGEAA[αMeK]E[αMeF]IA[αMeF]VV[αMeK]GG-NH2 [SEQ ID NO 115], the “cAMP Primary assay EC50 GIP-R” value was 25 nM and the “cAMP Primary assay EC50 GIP-R (2nd)” value worked out at 25.3 nM.

On to H[Aib]EGS[αMeF]TSDV[αMeS]SK([PEG2′-PEG2′-γGlu-Stearoyl])LEGEAA[αMeK]E[αMeF]IA[αMeF]VV[αMeK]GG-NH2 [SEQ ID NO 116], for which the “cAMP Primary assay EC50 GIP-R” value turned out to be 26 nM and the “cAMP Primary assay EC50 GIP-R (2nd)” value is 25.6 nM.

H[Aib]EGS[αMeF]TSDV[αMeS]S[αMeF]LEGEAAK([PEG2′-PEG2′-γGlu-Palmitoyl])E[αMeF]IA[αMeF]VV[αMeK]GG-NH2 [SEQ ID NO 109]: the “cAMP Primary assay EC50 GIP-R” value was determined as 26 nM and the “cAMP Primary assay EC50 GIP-R (2nd)” value amounted to 25.6 nM.

For H[Aib]EGS[αMeF]TSDV[αMeS]S[αMeF]LEGEAK([PEG2′-PEG2′-γGlu-Stearoyl])[αMeK]E[αMeF]IA[αMeF]VV[αMeK]GG-NH2 [SEQ ID NO 110], the “cAMP Primary assay EC50 GIP-R” value is 25 nM and the “cAMP Primary assay EC50 GIP-R (2nd)” value worked out at 25 nM.

For the molecule H[Aib]EGS[αMeF]TSDV[αMeS]S[αMeF]LEK([PEG2′-PEG2′-γGlu-Stearoyl])EAA[αMeK]E[αMeF]IA[αMeF]VV[αMeK]GG-NH2 [SEQ ID NO 113], the “cAMP Primary assay EC50 GIP-R” value is 25 nM and the “cAMP Primary assay EC50 GIP-R (2nd)” value is 24.9 nM.

The values are drawn from US20200079833A1 (AstraZeneca / MedImmune, published 2020).
